Reference: the supplement of paper PMC7125110
± gives the standard error. Fewer inactive variants are shown than the library holds.

B1: glmS ribozyme (parent)
chain: AUAAAAGCGCCAGAACUACAGAAAUGUAGUUGACGAGGAGGAGGUUUAUCGAAUUUUCGGCGGAUGCCUCCAAA

Legend:
Details in all cases: with glucosamine-6-phosphate
[1] = variants of: B1; assay: self-cleavage kobs at 40 uM GlcN6P; higher = faster cleavage; RNA array
Summary of the method: (§1)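 In situ transcription by E. coli RNA polymerase produced barcoded ribozyme variants on sequenced MiSeq chips, and a hybridised Cy3 probe tracked them at 37 °C. Glucosamine-6-phosphate was flowed in at 40 μM to 10 mM in HEPES/KCl/Mg(OAc)2 buffer. kcat and KM were taken from weighted Michaelis–Menten fits of kobs values from exponential decay fits.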

[2] = variants of: B1; assay: self-cleavage kobs at 160 uM GlcN6P; higher = faster cleavage; RNA array
Summary of the method: as §1

[3] = variants of: B1; assay: self-cleavage kobs at 640 uM GlcN6P; higher = faster cleavage; RNA array
Summary of the method: as §1

[4] = variants of: B1; assay: self-cleavage kobs at 2500 uM GlcN6P; higher = faster cleavage; RNA array
Summary of the method: as §1

[5] = variants of: B1; assay: self-cleavage kobs at 10000 uM GlcN6P; higher = faster cleavage; RNA array
Summary of the method: as §1

Variant	self-cleavage kobs at 40 uM GlcN6P [1] [s⁻¹]	self-cleavage kobs at 160 uM GlcN6P [2] [s⁻¹]	self-cleavage kobs at 640 uM GlcN6P [3] [s⁻¹]	self-cleavage kobs at 2500 uM GlcN6P [4] [s⁻¹]	self-cleavage kobs at 10000 uM GlcN6P [5] [s⁻¹]
A53G U54A	0.000851 ± 0.00024	0.00267 ± 0.00057	0.0083 ± 0.0014	0.0106 ± 0.0043	0.0724 ± 0.027
A53G U54G	0.00114 ± 0.00028	0.00165 ± 0.00047	0.00511 ± 0.0011	0.00388 ± 0.0012	0.081 ± 0.028
A52G C61G	< 1e-05				< 1e-05
C50G C58A C67A	7.83e-05 ± 1.2e-05				9.18e-05 ± 1.4e-05
G51U A53C	< 1e-05	< 1e-05	< 1e-05		
U65A C71A	5.65e-05 ± 2.4e-05			0.0012 ± 0.00041	0.00104 ± 0.00039
C50A G62U G63A	< 1e-05	< 1e-05	< 1e-05	< 1e-05	< 1e-05
U56G G62U G63U	< 1e-05				< 1e-05
A53U U55A C67G	0.000155 ± 4.4e-05				0.00212 ± 0.00067
A52C C71G	< 1e-05		< 1e-05	< 1e-05	
C50G G62U	0.00036 ± 0.00014	0.000115 ± 1.8e-05	0.000122 ± 2.7e-05		3.35e-05 ± 1e-05
G62A C67U	< 1e-05			< 1e-05	< 1e-05
A53G G66A C67A	0.000154 ± 2.9e-05			0.0011 ± 0.0002	0.0038 ± 0.00083
C50G G51U	< 1e-05	< 1e-05			
U54G C67U	0.000313 ± 5.9e-05	0.000612 ± 0.00014	0.00333 ± 0.00057	0.00208 ± 0.00059	
A53U G59U	< 1e-05				4.13e-05 ± 7.7e-06
U55G U65A C67A	6.53e-05 ± 1.8e-05				9.95e-05 ± 3e-05
G60C C67U	< 1e-05				< 1e-05
U56C U69C C70A	< 1e-05	< 1e-05	< 1e-05	< 1e-05	< 1e-05
U65G C67A	7.27e-05 ± 1.2e-05	0.000116 ± 1.9e-05	0.000435 ± 6.7e-05	0.00133 ± 0.0004	0.00417 ± 0.0006
G60U A64U	< 1e-05	< 1e-05		< 1e-05	< 1e-05
A64C C67G	< 1e-05	< 1e-05	< 1e-05	< 1e-05	
A53U C71A	0.000169 ± 1.6e-05	0.000145 ± 3.8e-05	0.00145 ± 0.00029		0.00487 ± 0.00058

Variant	self-cleavage kobs at 40 uM GlcN6P [1] [s⁻¹]	self-cleavage kobs at 160 uM GlcN6P [2] [s⁻¹]	self-cleavage kobs at 640 uM GlcN6P [3] [s⁻¹]	self-cleavage kobs at 2500 uM GlcN6P [4] [s⁻¹]	self-cleavage kobs at 10000 uM GlcN6P [5] [s⁻¹]
G51A A52C A53G	< 1e-05				
U56A U65G	3.75e-05 ± 1.4e-05		0.000348 ± 0.00011		0.00196 ± 0.00027
U57A G63U C70G	< 1e-05				
A52C C68G	4.36e-05 ± 1.5e-05		0.000126 ± 3.5e-05		2.34e-05 ± 1.1e-05
U56C G62C	< 1e-05		< 1e-05		< 1e-05
U57A U65C	< 1e-05		< 1e-05		
G60U G63A C67U	< 1e-05				
U57C G62U U65C	< 1e-05				< 1e-05
G51A G62C C67A	< 1e-05				< 1e-05
U49C G63A C67G	< 1e-05				< 1e-05
A53C C61G	< 1e-05		< 1e-05		< 1e-05
A53C C61U	< 1e-05	< 1e-05	< 1e-05		
G59U A64U	< 1e-05		< 1e-05	< 1e-05	< 1e-05
C50A C58U C61U G63U	< 1e-05				
U54G G62C	< 1e-05	< 1e-05	< 1e-05	< 1e-05	< 1e-05
C50U G59C	< 1e-05	< 1e-05	< 1e-05	< 1e-05	< 1e-05
G62C U65A	< 1e-05				
A52C A64G	< 1e-05	< 1e-05	< 1e-05		
G62A G66U	< 1e-05		< 1e-05	< 1e-05	< 1e-05
U54A U69C	0.000835 ± 0.00028	0.000323 ± 8.9e-05	0.000282 ± 6e-05	0.000214 ± 6.2e-05	0.000426 ± 0.00011
U55C U56A	0.000256 ± 4.6e-05			0.0131 ± 0.0031	0.0148 ± 0.0032
A52C G62U	< 1e-05	< 1e-05			< 1e-05
